The source of these data is paper PMC11681868, “Unveiling the structural mechanisms behind high affinity and selectivity in phosphorylated epitope-specific rabbit antibodies” (The Journal of Biological Chemistry, 2024).

The test addresses T1, Akt peptide (synthetic peptide; letters match human …).
T1 construct: Akt peptide around 473-Ser, not phosphorylated; also called non-phosphorylated antigen; non-phosphorylated peptide; source: synthetic peptide (SCRUM Inc.)
T1 chain: RPHFPQFSYSAS
The test is described as follows: ITC; iTC200; 5 μM scFv in the cell, 50 μM peptide in the syringe; samples dialyzed against PBS; triplicate. As to conditions: both partners purified. Background: In ITC the heat of successive injections is recorded.

B1: rabbit antibody A4 scFv (wild type) (scFv, V domains shown)
VH: QEQLMESGGRLVTPGTPLTLTCTASGSDISTYSISWVRQAPGKGLEWIGHIGSSGTQYYASWAKGRFAISRASTTVDLRITGPTTEDTATYFCARRGVGYNLYYNMWGPGTLVTVSL
VL: AIDMTQTPSPVSAAVGGTVTINCQASQSVYNSKNLAWYQQKPGQPPKLLIYDSSTLASGVSSRFRGSGSGTQFTLTISGVQSDDAATYYCQGEFSCSSGDCAGFGGGTEVVVE
notes: VH of rabbit antibody A4; they are in PDB 8JOW (A4 scFv); GS linker of the scFv; PDB 8JOW may hold them; VL (kappa) of rabbit antibody A4; they are in PDB 8JOW; the deposited construct should already hold Ser at L80 (Chothia); Antibody numbering is Chothia; also called A4 WT; source: E. coli BL21(DE3), purified (Ni-NTA, SEC)
Regarding B1, binding was put at a Kd of 1120 nM.
